Measured values: patent publication US20240425569A1 (VISTERRA, published 2024)
Substitutions are numbered along the chain they refer to. Where two headings read alike, the source gives them in different places.

Tests used:
[1] = target: T1, New Caledonia/2009 (serotype IV EDIII); test: Kd table, method not stated; Ag DENV-4 NC
T1 construct: also called ED3-DV4/NewCal09; DENV-4 NC
T1 E protein domain III (EDIII): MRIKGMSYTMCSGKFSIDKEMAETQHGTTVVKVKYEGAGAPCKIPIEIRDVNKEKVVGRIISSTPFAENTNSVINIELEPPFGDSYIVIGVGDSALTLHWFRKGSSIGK

[2] = target: T1, New Caledonia/2009 (serotype IV EDIII); test: ELISA; row New Caledonia/2009, serotype IV, genotype IIb
[3] = target: T2, EDIII-DV4 (E protein domain III of dengue virus serotype DV-4) (dengue virus serotype DV-4, UniProt P09866 572-679)
T2 construct: also called DENV-4

[4] = target: T2, EDIII-DV4 (E protein domain III of …); test: competition ELISA; column 'EDIII-DV4'
[5] = target: T3, Vietnam/2008 (serotype I EDIII)
T3 construct: also called ED3-DV1/Viet08
T3 E protein domain III (EDIII): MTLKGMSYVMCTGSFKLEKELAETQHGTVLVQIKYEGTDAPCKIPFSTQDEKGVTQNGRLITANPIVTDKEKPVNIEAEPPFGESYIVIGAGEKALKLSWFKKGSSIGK

[6] = target: T4, Nicaragua/2010 (serotype III EDIII)
T4 construct: also called ED3-DV3/Nicaragua10; DENV-3 Nic
T4 E protein domain III (EDIII): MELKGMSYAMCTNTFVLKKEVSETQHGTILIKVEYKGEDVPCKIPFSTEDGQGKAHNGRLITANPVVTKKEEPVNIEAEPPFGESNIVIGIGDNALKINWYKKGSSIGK

[7] = target: T5, Puerto Rico/1977 (serotype III EDIII); test: SPR; row Puerto Rico/1977, serotype III, genotype IV
T5 construct: Genotype IV; also called ED3-DV3/PuertoRico77
T5 E protein domain III (EDIII): T4 E protein domain III (EDIII) with T12S, N13G, V33I, V40A, G51A, I91T, N94K, K97R

[8] = target: T6, Peru/1995 (serotype II EDIII); test: SPR; row Peru/1995, serotype II, genotype American
T6 construct: also called ED3-DV2/Peru95; DENV-2 Peru

[9] = target: T4, Nicaragua/2010 (serotype III EDIII)
[10] = target: T7, Venezuela/2007 (serotype II EDIII); test: ELISA; row Venezuela/2007, serotype II, genotype SE-Asian/American
T7 construct: also called ED3-DV2/Venezuela07
T7 E protein domain III (EDIII): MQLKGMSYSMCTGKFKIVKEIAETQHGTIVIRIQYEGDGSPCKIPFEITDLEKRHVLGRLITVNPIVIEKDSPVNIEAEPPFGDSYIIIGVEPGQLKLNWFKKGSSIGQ

[11] = target: T4, Nicaragua/2010 (serotype III EDIII)
[12] = target: T8, Mexico/1977 (BC287/97)* (serotype IV EDIII) (Dengue virus 4); test: Kd table, method not stated; Ag DENV-4 BC2
T8 construct: isolated EDIII protein; also called EDIII of DENV-4 Mexico/1997 (BC287/97); DENV-4 BC2

[13] = target: T9, Thailand/1997 (serotype IV EDIII); test: SPR; row Thailand/1997, serotype IV, genotype III
T9 E protein domain III (EDIII): T1 E protein domain III (EDIII) with K19R, A38T, I44V, N69S, I74T

[14] = target: T3, Vietnam/2008 (serotype I EDIII)
[15] = target: T2, EDIII-DV4 (E protein domain III of …); test: competition ELISA; column 'EDIII-DV4 [1/7]'
[16] = target: T10, Singapore/2009 (serotype III EDIII)
T10 construct: also called ED3-DV3/Sing09; DENV-3 Sing
T10 E protein domain III (EDIII): T4 E protein domain III (EDIII) with T12Q, T14A, V40A, N94K

[17] = target: T11, EDIII-DV2 (E protein domain III of dengue virus serotype DV-2) (dengue virus serotype DV-2, UniProt P14337 573-677); test: competition ELISA
T11 construct: also called DENV-2; EDIII of DV-2

[18] = target: T12, EDIII-DV3 (E protein domain III of dengue virus serotype DV-3) (dengue virus serotype DV-3, UniProt P27915 571-678); test: competition ELISA
T12 construct: also called DENV-3; EDIII of DV-3

[19] = target: T13, EDIII-DV1 (E protein domain III of dengue virus serotype DV-1) (dengue virus serotype DV-1, UniProt P17763 573-680); test: competition ELISA
T13 construct: also called DENV-1; EDIII of DV-1
T13 chain: T3 E protein domain III (EDIII) with L21V, I33V, V54A, I89V

B1: antibody D88 (antibody, V domains shown)
VH: QVQLVQSGAEVKKPGASVKVSCKAGFNIKDVYMSWVRQAPEQGLEWMGRIDPENGDTKYDPKLQGRVTMTADTSTNTAYMELRSLRSDDTAVYYCARGWEGFAYWGQGTLVTVSS
VL: DIVMTQSPASLAVSLGERATISCRASENVDKYGNSFMHWYQQKPGQPPKLLIYRASELQWGVPDRFSGSGSGTDFTLTISSLQAEDVAVYYCQRSNEVPWTFGQGTKLEIK
notes: also called mAb D88
B1 gave a Kd [1] of 10.8 nM, a Kd [2] of 10.8 nM and a Kd [3] of 3.12 nM. The Kd [4] was 6.12 nM, the Kd [5] was < 0.1 nM and the Kd [6] was 3.3 nM. For the same binder, the Kd [7] was 1.4 nM, the Kd [8] was 0.012 nM and the Kd [9] was 3.36 nM. The Kd [10] was < 0.1 nM, the Kd [11] was 4.91 nM and the Kd [12] was 7.2 nM. The Kd [13] was > 300 nM, the Kd [14] was 0.031 nM and the Kd [15] was 3.12 nM. For the same binder, the Kd [16] was 0.61 nM, the Kd [17] was < 0.1 nM and the Kd [18] was 1.21 nM. The Kd [19] was < 0.1 nM.
